Where no end group is shown, it is not given here.
Legend:
[1] = target: Retinoblastoma binding protein 4 (RBBP4) (human, UniProt Q09028 1-425); experiment: fluorescence polarisation
[2] = target: Retinoblastoma binding protein 7 (RBBP7) (human, UniProt Q16576 1-425); experiment: fluorescence polarisation
Sequence of Retinoblastoma binding protein 7 (RBBP7) (Q16576 whole entry): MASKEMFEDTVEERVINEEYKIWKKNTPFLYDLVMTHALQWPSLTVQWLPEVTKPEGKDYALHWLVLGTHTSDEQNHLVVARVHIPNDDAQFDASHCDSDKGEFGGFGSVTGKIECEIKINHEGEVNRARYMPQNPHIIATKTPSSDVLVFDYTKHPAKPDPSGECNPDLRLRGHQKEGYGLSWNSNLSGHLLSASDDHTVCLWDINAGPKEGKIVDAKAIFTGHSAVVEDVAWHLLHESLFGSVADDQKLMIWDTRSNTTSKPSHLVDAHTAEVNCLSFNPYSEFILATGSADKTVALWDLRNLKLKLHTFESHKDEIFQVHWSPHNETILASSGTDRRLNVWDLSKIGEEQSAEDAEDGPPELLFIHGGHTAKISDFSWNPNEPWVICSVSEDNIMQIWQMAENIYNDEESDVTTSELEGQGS

Sequence of Retinoblastoma binding protein 4 (RBBP4) (Q09028 whole entry): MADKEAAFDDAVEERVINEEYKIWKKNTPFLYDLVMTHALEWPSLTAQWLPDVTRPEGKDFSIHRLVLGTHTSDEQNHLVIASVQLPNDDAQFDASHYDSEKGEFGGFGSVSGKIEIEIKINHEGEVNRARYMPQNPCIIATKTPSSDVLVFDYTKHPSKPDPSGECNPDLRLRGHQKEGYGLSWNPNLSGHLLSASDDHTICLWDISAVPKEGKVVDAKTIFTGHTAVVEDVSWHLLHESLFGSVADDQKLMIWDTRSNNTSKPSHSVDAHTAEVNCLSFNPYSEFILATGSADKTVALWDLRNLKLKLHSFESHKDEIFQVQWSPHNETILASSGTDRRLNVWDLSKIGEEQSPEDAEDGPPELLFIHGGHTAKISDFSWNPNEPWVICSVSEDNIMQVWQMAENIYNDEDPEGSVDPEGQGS

Row | Binder | Kd [1] | Kd [2]
1 | KSKKKSRKGRPRKTN (also: FITC label (position not given here)) [FITC-labeled PHF6 (157–171) peptide] | 201 ± 102 nM | –
2 | LIAPIFLHRTLTYMSHR (also: FITC label (position not given here)) [FITC-labeled SUZ12 (105–121) peptide] | 6400 ± 600 nM | –
3 | FITC-labeled histone H4 (16–41) peptide (FITC label (position not given)) peptide: not shown | – | 135 ± 12 nM
4 | MSRRKQSNPRQIKRS (also: FITC label (position not given here)) [FITC-labeled FOG-1 (1–15) peptide] | 488 ± 245 nM | –

Reference: doi:10.1101/303537 (bioRxiv, 2018)
